For series [1], the target named is T1, human-derived IL-4Rα on expressing cells (human, UniProt P24394 26-825).
T1 sequence (looked up): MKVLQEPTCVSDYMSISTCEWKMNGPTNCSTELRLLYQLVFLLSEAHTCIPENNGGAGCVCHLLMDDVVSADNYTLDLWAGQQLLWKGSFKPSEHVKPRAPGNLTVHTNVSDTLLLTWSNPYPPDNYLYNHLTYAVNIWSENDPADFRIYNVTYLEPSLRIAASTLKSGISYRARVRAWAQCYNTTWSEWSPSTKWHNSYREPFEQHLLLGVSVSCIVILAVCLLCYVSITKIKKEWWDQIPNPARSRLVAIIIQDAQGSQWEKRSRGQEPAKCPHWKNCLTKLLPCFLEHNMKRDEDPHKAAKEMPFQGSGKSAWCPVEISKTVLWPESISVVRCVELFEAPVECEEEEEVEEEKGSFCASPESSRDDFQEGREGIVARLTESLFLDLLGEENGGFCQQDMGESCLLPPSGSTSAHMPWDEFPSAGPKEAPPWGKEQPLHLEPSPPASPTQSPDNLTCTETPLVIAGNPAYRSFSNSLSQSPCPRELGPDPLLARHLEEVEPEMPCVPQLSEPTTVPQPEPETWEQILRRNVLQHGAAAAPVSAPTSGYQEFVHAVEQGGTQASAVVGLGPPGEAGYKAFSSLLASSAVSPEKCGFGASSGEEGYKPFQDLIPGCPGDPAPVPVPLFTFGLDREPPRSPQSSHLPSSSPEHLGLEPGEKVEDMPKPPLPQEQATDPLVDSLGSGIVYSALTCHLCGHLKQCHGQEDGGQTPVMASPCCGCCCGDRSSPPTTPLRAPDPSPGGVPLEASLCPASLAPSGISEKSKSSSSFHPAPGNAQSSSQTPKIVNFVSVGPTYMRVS
Kind of series: flow cytometry on TF-1 cells expressing IL-4Rα, anti-His-FITC detection. Background: A flow cytometer gives signals particle by particle.

The target in series [2] is Biotin-labeled human-derived IL-4Rα protein (SinoBiological, CAT# 10402-H08H-B) (human) (UniProt P24394). Kind of series: SPR, Biacore 8K, biotin-hIL-4Rα captured on SA chip, test protein as analyte.
Series [3] is described as follows: Pharmacokinetic test in a mouse model after intratracheal nebulized administration. The format is in vivo, C57BL6/J mice. The conditions noted are these: mice, ADC-2 100 µg i.t. once; serum, BALF, lung tissue. The text has this: Mice received intratracheal (i.t.) nebulized administration. […] Following blood collection, the mice were anesthetized and immobilized. […] Table 4. Administration scheme

Series [4] deals with T1, human-derived IL-4Rα on expressing cells. Kind of series: cell-based or functional assay.
For series [5] the target is unchanged. Kind of series: flow cytometry on TF-1 cells expressing IL-4Rα, anti-hFab-FITC detection.
Series [6] addresses T2, Biotin-labeled human-derived IL-4Rα protein (SinoBiological, CAT# 10402-H08H-B) (human, UniProt P24394 26-232, biotin-labeled (site not stated)).
T2 construct: Bought reagent, captured on an SA sensor chip; also called hIL-4Rα; human-derived IL-4Rα antigen protein
T2 sequence (looked up): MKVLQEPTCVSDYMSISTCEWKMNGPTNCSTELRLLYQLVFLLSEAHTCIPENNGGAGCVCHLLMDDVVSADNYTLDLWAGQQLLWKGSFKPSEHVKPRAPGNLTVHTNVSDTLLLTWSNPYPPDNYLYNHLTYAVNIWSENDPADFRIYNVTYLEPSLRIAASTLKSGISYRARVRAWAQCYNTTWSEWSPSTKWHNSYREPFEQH
Kind of series: SPR, Biacore 8K, biotin-hIL-4Rα captured on SA chip, test protein as analyte.

The values that follow come from patent EP4755401A1, “PHARMACEUTICAL COMPOSITION CONTAINING ANTIBODY-DRUG CONJUGATE OF GLUCOCORTICOID” (Jiangsu Hengrui Pharmaceuticals Co., Ltd., priority 2023, dated 2025).

Usually EC50 stands for the midpoint of the concentration-response curve. High values mean lower potency in that assay, low ones higher potency in that assay. Usually Kd stands for the equilibrium constant for the complex coming apart. Low values mean a tighter complex, high ones a looser complex. As usually defined, the koff is the rate constant with which the complex falls apart. Low values mean slow dissociation, high ones fast dissociation. What is called kon is the second-order rate constant of association. Low values mean slower complex formation, high ones faster complex formation. On to AZD1402-TAG (designed binder), for which the EC50 in series [1] worked out at 0.0124 nM. In series [2], this molecule displayed a dissociation constant Kd of 0.0213 nM, a koff of 0.000102 s⁻¹ and a kon of 4.77e+06 M⁻¹ s⁻¹.

For the molecule `CCCC1O[C@@H]2C[C@H]3[C@@H]4CCC5=CC(=O)C=C[C@]5(C)[C@H]4[C@@H](O)C[C@]3(C)[C@]2(C(=O)CO)O1` (some centres unmarked) [budesonide], the “distribution / exposure after intratracheal administration (in words)” value in series [3] is “very low in all tissues”.

B1: antibody-drug conjugate ADC-2 (Fab, V domains shown)
VH: EVQLVESGGGLVQPGGSLRLSCAASGFTFSDYGMHWVRQAPGKGLEWVAFISSGSSIIYYADIVKGRSTISRDNAKNTLYLQMNSLRAEDTAVYYCTRGNKRGFFDYWGQGTLVTVSS
VL: EIVLTQSPATLSLSPGERATLSCRASSSVPYMYWYQQKPGQAPRLLIYLTSNLASGIPARFSGSGSGTDFTLTISSLEPEDFAVYYCQQWRAYPPMLTFGGGTKVEIKR
modifications: budesonide drug-linker (compound 2, maleimide) conjugated after TCEP reduction of 25G7-Fab; conjugated residues and drug load not stated
Consider B1, for which, in series [4], the “IC50 values for blocking the IL-4 signaling pathway (nM); HEK-Blue IL-4/IL-13 STAT6-SEAP reporter cells” value was 0.68 nM and the “IC50 values for blocking the IL-13 signaling pathway (nM); HEK-Blue IL-4/IL-13 STAT6-SEAP reporter cells” value came to 10.6 nM.

B2: 25G7-Fab (Fab, V domains shown)
VH: EVQLVESGGGLVQPGGSLRLSCAASGFTFSDYGMHWVRQAPGKGLEWVAFISSGSSIIYYADIVKGRSTISRDNAKNTLYLQMNSLRAEDTAVYYCTRGNKRGFFDYWGQGTLVTVSS
VL: EIVLTQSPATLSLSPGERATLSCRASSSVPYMYWYQQKPGQAPRLLIYLTSNLASGIPARFSGSGSGTDFTLTISSLEPEDFAVYYCQQWRAYPPMLTFGGGTKVEIKR
notes: also called naked anti-25G7-Fab; naked antibody 25G7-Fab
On to B2, for which the EC50 in series [5] came to 0.243 nM. Besides, in series [4], the “IC50 values for blocking the IL-4 signaling pathway (nM); HEK-Blue IL-4/IL-13 STAT6-SEAP reporter cells” value came to 0.61 nM and the “IC50 values for blocking the IL-13 signaling pathway (nM); HEK-Blue IL-4/IL-13 STAT6-SEAP reporter cells” value came to 14.6 nM. In series [6], this molecule returned a Kd of 0.0439 nM, a koff of 0.000206 s⁻¹ and an on-rate constant (kon) of 4.69e+06 M⁻¹ s⁻¹.

B3: hu25G7 (antibody, human IgG4 S228P, kappa, V domains shown)
VH: EVQLVESGGGLVQPGGSLRLSCAASGFTFSDYGMHWVRQAPGKGLEWVAFISSGSSIIYYADIVKGRSTISRDNAKNTLYLQMNSLRAEDTAVYYCTRGNKRGFFDYWGQGTLVTVSS
VL: EIVLTQSPATLSLSPGERATLSCRASSSVPYMYWYQQKPGQAPRLLIYLTSNLASGIPARFSGSGSGTDFTLTISSLEPEDFAVYYCQQWRAYPPMLTFGGGTKVEIKR
notes: Full-length humanized anti-IL-4R IgG4 antibody
In turn, B3 registered an EC50 in series [5] of 0.247 nM.
